Data on eight molecules can be found in patent US5858973, “Transcription factor and uses therefor” (The General Hospital Corporation).

For data set [1], the target named is T1, IDX-1 (GST fusion, full length) (Rattus norvegicus, UniProt P52947 SEQ:1-283). The data set is described as follows: EMSA; data not shown; protein preparation not stated. As to conditions: tags: N-terminal GST (pGEX-KG), bacterially expressed.
Data set [2] deals with T1, IDX-1 (GST fusion, full length). The data set can be described thus: EMSA; several complexes. As to conditions: tags: N-terminal GST (pGEX-KG), bacterially expressed; label: 32P. The method, then: (§1) Electrophoretic mobility shift assays (EMSA) were performed as described (Ron et al., 1990, Mol. and Cell. Biol. 10:1023) using bacterially-expressed IDX-1 or nuclear extracts prepared from RIN1027-B2 cells (Dignam et al., 1983, supra). PCR was used to generate a bacterial expression vector encoding the full length IDX-1 protein fused to glutathione S-transferase(GST). An oligonucleotide amplimer was designed to create an NcoI site at the initiation methionine of the IDX-1 cDNA. This primer was used in conjunction with the T3 primer to amplify the IDX-1 cDNA insert from an IDX-1/pBS(KS) subclone. The PCR product was digested with NcoI and XhoI, gel-purified, and ligated into NcoI/XhoI-cut pGEX-KG (Pharmacia Biotech Inc., Piscataway, N.J.). Expression and purification of the GST/IDX-1 fusion protein was performed as described (Smith and Johnson, 1988, supra).
(§2) Nuclear extracts form RIN1027-B2 cells or purified bacterially-expressed GST/IDX-1 were incubated with the following ^32P-labelled double-stranded oligonucleotide probes: 1) INS1-FLAT, the Far-linked AT-rich element of the rat insulin 1 gene (German et al., 1992, Mol. Cell. Biol. 12:1777) (5'-[…]-3'); 2) SMS-TAAT1, a FLAT-like element (5'-[…] […]

Data set [3] has the same target. The data set can be described thus: EMSA. As to conditions: tags: N-terminal GST (pGEX-KG), bacterially expressed; label: 32P. The method, then:
as §1, §2

The target is the same in data set [4]. The data set can be described thus: EMSA; appears weaker than SMS-TAAT1. As to conditions: tags: N-terminal GST (pGEX-KG), bacterially expressed; label: 32P. The method, then: as §1, §2
Data set [5] deals with IDX-1 (IDX-1/pBJ5 expressed in NIH-3T3) (Rattus norvegicus, UniProt P52947 SEQ:1-283). The data set can be described thus: cell_activity; CAT reporter in NIH-3T3. From the text:
Several different reporter constructs were used in cotransfection experiments with IDX-1/pBJ5 expression vector. The SMS900CAT plasmid consists of nucleotides −900 to +54, relative to the transcription start site, of the rat somatostatin gene linked 5' to the coding sequence of the bacterial chloramphenicol acetyl transferase (CAT) gene (Powers et al., 1989, supra). The plasmid SMS900(Δ−250/−120)CAT is identical to SMS900CAT with the exception of an internal deletion between nucleotides −250 and −120. This deletion removes a putative transcriptional suppressor region located between nucleotides −237 and −189 of the rat somatostatin gene (Vallejo et al., in preparation). SMS(−900/−250) TKCAT contains −900 to −250 of the rat somatostatin gene linked 5' to the herpes simplex thymidine kinase promoter in the CAT reporter plasmid PUTKAT (Prost and Moore, 1986, Gene 45:107). The plasmids SMS900CAT(TAAT1mut), SMS900CAT(TAAT2mut) and SMS900CAT(UE-Bmut) were created using oligonucleotide-directed mutagenesis (Kunkel, 1985, Proc. Natl. Acad. Sci. USA 82:488) to introduce clustered nucleotide substitutions in the IDX-1 binding sites located at −450, −290, and —90, respectively, within the SMS900CAT reporter. For SMS-TAAT1, the central 5'-ATTAAT-3' was converted to 5'-GCCGGC-3'. […]

T1 sequence (P52947 other isoform, or with tags, fused parts or gaps): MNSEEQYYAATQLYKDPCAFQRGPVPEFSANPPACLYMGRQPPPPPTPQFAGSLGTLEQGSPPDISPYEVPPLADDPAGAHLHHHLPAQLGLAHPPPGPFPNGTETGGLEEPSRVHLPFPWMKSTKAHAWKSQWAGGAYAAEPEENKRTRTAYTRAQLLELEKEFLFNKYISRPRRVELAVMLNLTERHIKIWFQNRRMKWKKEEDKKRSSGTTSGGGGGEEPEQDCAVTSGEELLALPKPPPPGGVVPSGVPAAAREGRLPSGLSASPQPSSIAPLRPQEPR
Sequence of IDX-1 (IDX-1/pBJ5 expressed in NIH-3T3) (P52947 other isoform, or with tags, fused parts or gaps): as above

B1: SMS-UE-B mutant (dsDNA)
DNA 1: GATCCGCGAGGTCGGCAGTGCGTAAAAGCACTGGTGA
DNA 2: TCACCAGTGCTTTTACGCACTGCCGACCTCGCGGATC
modifications: [12-17]
With B1, the binding result in data set [1] is reported as “no binding”.

B2: SMS-TAAT1 mutant (dsDNA)
DNA 1: GATCCCTGATTGCATGCCGGCTCTCAGATA
DNA 2: TATCTGAGAGCCGGCATGCAATCAGGGATC
modifications: [16-21]
Regarding B2, the binding result in data set [1] was “no binding”.

B3: SMS-TAAT2 mutant (dsDNA)
DNA 1: GATCCGATCTCAGCGGCCGATCATGCACCA
DNA 2: TGGTGCATGATCGGCCGCTGAGATCGGATC
modifications: [14-19]
Regarding B3, in data set [1], the binding result is on record as “no binding”.

B4: INS1-FLAT (dsDNA)
DNA 1: GATCCTTGTTAATCTAATTACCCTAGGTCTAA
DNA 2: TTAGACCTAGGGTAATTAGATTAACAAGGATC
On to B4, for which, in data set [2], the binding result was “binds”.

B5: SMS-UE-B (dsDNA)
DNA 1: GATCCGCGAGGCTAATGGTGCGTAAAAGCACTGGTGA
DNA 2: TCACCAGTGCTTTTACGCACCATTAGCCTCGCGGATC
For the molecule B5, the binding result in data set [3] is given as “binds”.

B6: SMS-TAAT2 (dsDNA)
DNA 1: GATCCGATCTCAGTAATTAATCATGCACCA
DNA 2: TGGTGCATGATTAATTACTGAGATCGGATC
For the molecule B6, the binding result in data set [4] is on record as “binds”.

B7: SMS-PS (dsDNA)
DNA 1: GATCCAGGCAAGATTATTTGGTCA
DNA 2: TGACCAAATAATCTTGCCTGGATC
As for B7, the binding result in data set [3] is recorded as “no binding”.

B8: 6x SMS-TAAT1 in SMS65CAT (dsDNA)
DNA 1: GATCCCTGATTGCATATTAATTCTCAGATA
DNA 2: TATCTGAGAATTAATATGCAATCAGGGATC
For B8, the activity in data set [5] turned out to be 34 fold.
